Assay results from publication PMC8164026, “Intrapulmonary administration of purified NEIL2 abrogates NF-κB–mediated inflammation”.

B1: C2-M (dsDNA)
DNA 1: GGACCCTGAGCTCAGAAAAGGTCCCTGGTCCACGGGCT
DNA 2: AGCCCGTGGACCAGGGACCTTTTCTGAGCTCAGGGTCC
B2: C1-M (dsDNA)
DNA 1: GAAACACCCTGTACTCCGAAAAGGTCCCTGGCCCGGAGCTCTG
DNA 2: CAGAGCTCGGGGCCAGGGACCTTTTCGGAGTACAGGGTGTTTC
B3: IL6-M (dsDNA)
DNA 1: TTGCTATTAAATGTGTTCGTTTGTACAGAGTCTCAAAA
DNA 2: TTTTGAGACTCTGTACAAACGAACACATTTAATAGCAA

Biological target: His-RelA (p65) (UniProt Q04206 1-551)
Sequence (Q04206 whole entry): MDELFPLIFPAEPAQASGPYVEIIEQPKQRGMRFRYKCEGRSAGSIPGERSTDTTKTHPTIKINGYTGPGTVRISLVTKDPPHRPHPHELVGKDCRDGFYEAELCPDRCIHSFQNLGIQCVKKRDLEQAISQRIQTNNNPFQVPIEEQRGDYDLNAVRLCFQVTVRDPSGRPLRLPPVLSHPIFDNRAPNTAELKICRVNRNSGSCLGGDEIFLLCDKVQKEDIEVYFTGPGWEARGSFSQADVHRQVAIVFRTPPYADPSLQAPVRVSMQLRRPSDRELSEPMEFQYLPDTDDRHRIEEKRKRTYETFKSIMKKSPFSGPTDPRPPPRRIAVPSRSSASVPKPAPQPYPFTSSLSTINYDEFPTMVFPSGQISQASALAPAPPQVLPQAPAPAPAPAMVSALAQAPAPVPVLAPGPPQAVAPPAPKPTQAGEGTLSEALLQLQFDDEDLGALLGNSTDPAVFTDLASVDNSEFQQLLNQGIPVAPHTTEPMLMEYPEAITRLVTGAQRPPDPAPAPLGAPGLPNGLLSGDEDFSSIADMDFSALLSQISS
Assay: EMSA; EMSA: 10 mM Tris-HCl pH 7.9, 50 mM NaCl, 1 mM MgCl2, 1 mM EDTA, 5 mM DTT, 5% glycerol, 0.5 µg poly dI.dC, 2-10 µg acetylated BSA, 10 min, room temperature; gel
Settings: protein: recombinant, tags: His, chain copies: 2

Binder | binding result (blunt) | binding result (blunt as printed, one internal mismatch outside the motif (printed))
B1 | no binding | –
B2 | – | no binding
B3 | no binding | –
